# Assay results as given in patent publication US20090274695A1 (published 2009).
# T1: Mouse uPAR, full-length, on transfected COS cells (mouse, UniProt P35456 24-298)
# T1 construct: whole, on cells; also called murine uPAR
# T1 sequence (looked up): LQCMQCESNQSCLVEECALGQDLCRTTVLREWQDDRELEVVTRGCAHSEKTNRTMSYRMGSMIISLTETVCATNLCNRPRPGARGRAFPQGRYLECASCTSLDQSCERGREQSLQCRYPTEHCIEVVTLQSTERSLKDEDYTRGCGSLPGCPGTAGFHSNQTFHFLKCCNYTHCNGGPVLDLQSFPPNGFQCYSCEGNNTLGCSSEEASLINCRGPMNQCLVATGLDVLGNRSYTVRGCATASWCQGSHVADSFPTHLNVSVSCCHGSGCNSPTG
# Tests used:
# [1] = molecular target: T2, unnamed immobilized partner drawn in Figure 10B; experiment: BIAcore, two-step binding scheme drawn beside the numbers; immobilized partner not named
# T2 construct: It is drawn as a chain of three ovals held by a small tag on a cross-shaped capture molecule on the surface; This would fit biotinylated uPAR on avidin, but it carries no label, so it is not assigned to m7 or m13
# [2] = molecular target: T1, Mouse uPAR, full-length, on transfected …; experiment: AP fusion protein on COS cells transfected with murine uPAR, colorimetric AP assay; bar pattern assigned by bar order and by paragraph 233
# [3] = molecular target: T2, unnamed immobilized partner drawn in …; experiment: BIAcore, two-step binding scheme. The line is printed 'ka1' a second time, but the unit 1/s and the scheme's kd1 mark it as the dissociation rate of the first step. Immobilized partner not named
# [4] = molecular target: T3, Human uPAR (urokinase-type plasminogen activator receptor), full-length, on transfected COS or CHO cells (human, UniProt Q03405 23-305); experiment: homologous competition of purified CYTL1 against CYTL1-AP on uPAR-transfected cells, three independent experiments
# T3 construct: whole, on cells; GPI-anchored on the cell surface; also called uPAR-transfected cells
# [5] = molecular target: T4, Recombinant human uPAR (R&D Systems), immobilized on a CM5 sensor chip (human, UniProt Q03405 23-303, limits assumed); experiment: SPR equilibrium binding, Langmuir single-site fit, three sets of readings; SPR equilibrium binding, uPAR immobilized on the chip
# T4 construct: Bought protein, amine-coupled to the chip; also called immobilized uPAR
# T4 sequence (Q03405 23-303 limits assumed): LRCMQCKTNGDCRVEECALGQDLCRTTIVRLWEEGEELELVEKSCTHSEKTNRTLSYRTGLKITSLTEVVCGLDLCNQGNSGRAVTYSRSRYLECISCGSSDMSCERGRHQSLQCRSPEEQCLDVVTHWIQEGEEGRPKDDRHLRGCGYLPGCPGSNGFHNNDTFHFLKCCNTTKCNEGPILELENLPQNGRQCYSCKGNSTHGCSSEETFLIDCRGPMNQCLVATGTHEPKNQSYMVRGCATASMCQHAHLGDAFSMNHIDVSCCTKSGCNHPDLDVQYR
# T3 sequence (Q03405 23-305): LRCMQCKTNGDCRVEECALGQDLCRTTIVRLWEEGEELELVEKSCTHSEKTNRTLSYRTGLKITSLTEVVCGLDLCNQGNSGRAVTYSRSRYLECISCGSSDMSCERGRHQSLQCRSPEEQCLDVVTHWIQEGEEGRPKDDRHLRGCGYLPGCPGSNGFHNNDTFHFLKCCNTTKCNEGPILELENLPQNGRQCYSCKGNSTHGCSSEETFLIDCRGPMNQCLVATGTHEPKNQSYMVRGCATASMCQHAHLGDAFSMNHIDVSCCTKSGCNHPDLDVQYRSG
Binder,kon [1] [M⁻¹ s⁻¹],binding result [2],koff [3] [s⁻¹],Kd [4] [nM],Kd [5] [nM]
"Human CYTL1-alkaline phosphatase fusion protein (other, Expressed in 293 cells from a pRK5-based vector and used as cell-conditioned medium; also called CYTL1-AP; human CYTL1-AP; not shown: Human placental alkaline phosphatase (AP)) TPPTCYSRMRALSQEITRDFNLLQVSEPSEPCVRYLPRLYLDIHNYCVLDKLRDFVASPPCWKVAQVDSLKDKARKLYTIMNSFCRRDLVFLLDDCNALEYPIPVTTVLPDRQR",570000,no binding,0.018,–,–
"Purified human CYTL1 (cytokine-like 1), expressed in insect cells, poly-histidine tag cleaved (ligand, also called purified CYTL1; PRO4425) TPPTCYSRMRALSQEITRDFNLLQVSEPSEPCVRYLPRLYLDIHNYCVLDKLRDFVASPPCWKVAQVDSLKDKARKLYTIMNSFCRRDLVFLLDDCNALEYPIPVTTVLPDRQR",–,–,–,~1500,1100
